# Laboratory results as given in patent US20190359687A1 (Bayer, published 2019).
# Positions count from the first letter of the chain named. No end group written: not given here. *: point of attachment. Biotin = O=C1N[C@H]2[C@H](CS[C@H]2CCCCC(=O)*)N1
# T1: human glycophorin A on human red blood cells or red blood cell membranes (human, UniProt P02724 20-150)
# T1 construct: whole, on cells; also called hRBC; human RBC membranes
# T1 sequence (looked up): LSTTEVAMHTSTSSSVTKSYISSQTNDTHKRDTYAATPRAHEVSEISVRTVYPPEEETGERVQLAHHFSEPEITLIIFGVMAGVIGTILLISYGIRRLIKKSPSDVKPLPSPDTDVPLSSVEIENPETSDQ
# T2: GP8 peptide of the human GPA ectodomain (human, not fully specified (N-terminus))
# T2 peptide: VRTVYPPE
# T3: GP13 peptide of the human GPA ectodomain (human, not fully specified (N-terminus))
# T3 peptide: PPEEETGE
# T4: GP10 peptide of the human GPA ectodomain (human, not fully specified (N-terminus))
# T4 peptide: TVYPPEEE
# T5: GP16 peptide of the human GPA ectodomain (human, not fully specified (N-terminus))
# T5 peptide: EETGERVQ
# T6: GP7 peptide of the human GPA ectodomain (human, not fully specified (N-terminus))
# T6 peptide: SVRTVYPP
# T7: GP15 peptide of the human GPA ectodomain (human, not fully specified (N-terminus))
# T7 peptide: EEETGERV
# T8: GP11 peptide of the human GPA ectodomain (human, not fully specified (N-terminus))
# T8 peptide: VYPPEEET
# T9: GP9 peptide of the human GPA ectodomain (human, not fully specified (N-terminus))
# T9 peptide: RTVYPPEE
# T10: GP12 peptide of the human GPA ectodomain (human, not fully specified (N-terminus))
# T10 peptide: YPPEEETG
# T11: GP14 peptide of the human GPA ectodomain (human, not fully specified (N-terminus))
# T11 peptide: PEEETGER
# T12: GP12 peptide (human)
# T12 peptide: Biotin-YPPEEETG
# T13: GP13 peptide (human)
# T13 peptide: Biotin-PPEEETGE
# T14: GP10 peptide (human)
# T14 peptide: Biotin-TVYPPEEE
# T15: GP11 peptide (human)
# T15 peptide: Biotin-VYPPEEET
# T16: GP15 peptide (human)
# T16 peptide: Biotin-EEETGERV
# T17: GP14 peptide (human)
# T17 peptide: Biotin-PEEETGER
# T18: GP16 peptide (human)
# T18 peptide: Biotin-EETGERVQ
# T19: GP7 peptide (human)
# T19 peptide: Biotin-SVRTVYPP
# B1: TPP-7792, affinity matured 6C12 Fab (Fab, V domains shown)
# VH: EVQLVQSGAEVKKPGASVKVSCKASGYTFTTYAIHWVRQAPGQGLEWMGYINPSSGYTRYNPKFKGRVTMTRDKSTSTAYMELRSLRSDDTAVYYCWTGTRDYWGQGTTVTVSS
# VL: DIQLTQSPSFLSASVGDRVTITCRASSSVRYIYWFQQKPGKAPKLLIYATSFRQSGVPSRFSGSGSGTEYTLTISSLQPEDFATYYCHQRNSFPYTFGQGTKLEIK
# notes: Tested as Fab with a 6xHIS tag
# B2: TPP-7792 Fab (Fab, V domains shown)
# VH: B1 VH
# VL: B1 VL
# notes: as m92
# B3: TPP-7790 Fab (Fab, V domains shown)
# VH: B1 VH with G66H
# VL: B1 VL with R53L
# notes: as m92
# Legend:
# [1] = biological target: T1, human glycophorin A on human red blood …; assay: Fab on intact human RBC, unbound Fab by ELISA; 5 min after 200-fold dilution
# Procedure: (§1) The binding of affinity matured Fab antibodies to intact human RBC was also measured. Human RBC were isolated from fresh anti-coagulated normal human blood by centrifugation through a ficol gradient and washing in PBS buffer. RBC diluted to 1/10th of normal hematocrit were incubated with purified Fab antibodies at a final concentration of 7 ug/ml for 1 hour at room temperature on a rotating shaker after which a sample was taken and the RBC were pelleted by centrifugation and the supernatant was collected. The remaining RBC suspension was diluted 200-fold in PBS buffer and incubated for a total of 2 hours at room temperature on a rotating shaker and samples were removed at 0, 5 min, 20 min, 1 h and 2 h and the RBC pelleted and the supernatant collected. The amount of Fab in the supernatants was then measured using an ELISA assay and the results used to calculate the percentage of the input Fab that was bound to the RBC. […] The percentage that remains bound after 200-fold dilution of the RBC suspension is an indication of the overall strength of the binding to human RBC.
# [2] = biological target: T1, human glycophorin A on human red blood …; assay: Fab 7 ug/ml on intact human RBC, unbound Fab by ELISA; pre-dilution
# Procedure: as §1
# [3] = biological target: T20, Cynomolgus monkey glycophorin A on Cynomolgus monkey red blood cells or red blood cell membranes (Cynomolgus monkey); assay: Fab on intact cyno RBC, unbound Fab by ELISA; 20 min after 200-fold dilution
# T20 construct: whole, on cells; also called Cyno RBC; Cynomolgus monkey RBC membranes
# Procedure: (§2) The binding of affinity matured Fab antibodies to intact Cynomolgus monkey RBC was measured. Cynomolgus monkey RBC were isolated from fresh anti-coagulated blood by centrifugation through a ficol gradient and washing in PBS buffer. RBC diluted to 1/10th of normal hematocrit were incubated with the Fab at a final concentration of 7 ug/ml for 1 hour at room temperature on a rotating shaker after which a sample was taken and the RBC were pelleted by centrifugation and the supernatant was collected. The remaining RBC suspension was diluted 200-fold in PBS buffer and incubated for a total of 2 hours at room temperature on a rotating shaker and samples were removed at 0, 5 min, 20 min, 1 h and 2 h and the RBC pelleted and the supernatant collected. […] The amount of Fab in the supernatants was then measured using an ELISA assay and the results used to calculate the percentage of the input Fab that was bound to the RBC.
# [4] = biological target: T2, GP8 peptide of the human GPA ectodomain; assay: ELISA, Fab 0.5 ug/ml on biotin-peptide on streptavidin plate
# Source text: (§3) These peptides were attached to the surface of a streptavidin coated plate via a biotin moiety that was present at the N-terminus of each peptide.
# [5] = biological target: T3, GP13 peptide of the human GPA ectodomain; assay: as above
# Source text: as §3
# [6] = biological target: T4, GP10 peptide of the human GPA ectodomain; assay: as above
# Source text: as §3
# [7] = biological target: T21, GP5 peptide of the human GPA ectodomain (human, N-terminal biotin); assay: as above
# T21 construct: Residues 42 to 61 of the human GPA extracellular domain
# Source text: as §3
# [8] = biological target: T5, GP16 peptide of the human GPA ectodomain; assay: as above
# Source text: as §3
# [9] = biological target: T6, GP7 peptide of the human GPA ectodomain; assay: as above
# Source text: as §3
# [10] = biological target: T7, GP15 peptide of the human GPA ectodomain; assay: as above
# Source text: as §3
# [11] = biological target: T8, GP11 peptide of the human GPA ectodomain; assay: as above
# Source text: as §3
# [12] = biological target: T9, GP9 peptide of the human GPA ectodomain; assay: as above
# Source text: as §3
# [13] = biological target: T10, GP12 peptide of the human GPA ectodomain; assay: as above
# Source text: as §3
# [14] = biological target: T11, GP14 peptide of the human GPA ectodomain; assay: as above
# Source text: as §3
# [15] = biological target: T20, Cynomolgus monkey glycophorin A on …; assay: Fab on intact cyno RBC, unbound Fab by ELISA; 120 min after 200-fold dilution
# Procedure: as §2
# [16] = biological target: T2, GP8 peptide of the human GPA ectodomain; assay: ELISA, Fab 0.05 ug/ml on biotin-peptide on streptavidin plate
# Source text: as §3
# [17] = biological target: T3, GP13 peptide of the human GPA ectodomain; assay: as above
# Source text: as §3
# [18] = biological target: T4, GP10 peptide of the human GPA ectodomain; assay: as above
# Source text: as §3
# [19] = biological target: T21, GP5 peptide of the human GPA ectodomain; assay: as above
# Source text: as §3
# [20] = biological target: T5, GP16 peptide of the human GPA ectodomain; assay: as above
# Source text: as §3
# [21] = biological target: T6, GP7 peptide of the human GPA ectodomain; assay: as above
# Source text: as §3
# [22] = biological target: T7, GP15 peptide of the human GPA ectodomain; assay: as above
# Source text: as §3
# [23] = biological target: T8, GP11 peptide of the human GPA ectodomain; assay: as above
# Source text: as §3
# [24] = biological target: T9, GP9 peptide of the human GPA ectodomain; assay: as above
# Source text: as §3
# [25] = biological target: T10, GP12 peptide of the human GPA ectodomain; assay: as above
# Source text: as §3
# [26] = biological target: T11, GP14 peptide of the human GPA ectodomain; assay: as above
# Source text: as §3
# [27] = biological target: T20, Cynomolgus monkey glycophorin A on …; assay: Fab on intact cyno RBC, unbound Fab by ELISA; 60 min after 200-fold dilution
# Procedure: as §2
# [28] = biological target: T1, human glycophorin A on human red blood …; assay: Fab on intact human RBC, unbound Fab by ELISA; 20 min after 200-fold dilution
# Procedure: as §1
# [29] = biological target: T1, human glycophorin A on human red blood …; assay: Fab on intact human RBC, unbound Fab by ELISA; 0 min after 200-fold dilution
# Procedure: as §1
# [30] = biological target: T1, human glycophorin A on human red blood …; assay: Fab on intact human RBC, unbound Fab by ELISA; 60 min after 200-fold dilution
# [31] = biological target: T20, Cynomolgus monkey glycophorin A on …; assay: Fab on intact cyno RBC, unbound Fab by ELISA; 0 min after 200-fold dilution
# Procedure: as §2
# [32] = biological target: T20, Cynomolgus monkey glycophorin A on …; assay: Fab on intact cyno RBC, unbound Fab by ELISA; 5 min after 200-fold dilution
# Procedure: as §2
# [33] = biological target: T20, Cynomolgus monkey glycophorin A on …; assay: Fab 7 ug/ml on intact cyno RBC, unbound Fab by ELISA; pre-dilution
# [34] = biological target: T1, human glycophorin A on human red blood …; assay: Fab on intact human RBC, unbound Fab by ELISA; 120 min after 200-fold dilution
# Procedure: as §1
# GP12 peptide = biological target: T12, GP12 peptide; assay: peptide ELISA, Fab
# Source text: as §3
# GP13 peptide = biological target: T13, GP13 peptide; assay: peptide ELISA, Fab
# Source text: as §3
# GP10 peptide = biological target: T14, GP10 peptide; assay: peptide ELISA, Fab
# Source text: as §3
# GP11 peptide = biological target: T15, GP11 peptide; assay: peptide ELISA, Fab
# Source text: as §3
# GP15 peptide = biological target: T16, GP15 peptide; assay: peptide ELISA, Fab
# Source text: as §3
# GP14 peptide = biological target: T17, GP14 peptide; assay: peptide ELISA, Fab
# Source text: as §3
# GP16 peptide = biological target: T18, GP16 peptide; assay: peptide ELISA, Fab
# Source text: as §3
# GP7 peptide = biological target: T19, GP7 peptide; assay: peptide ELISA, Fab
# Source text: as §3
binder,measurement,setting,value
B1,percentage of input antibody bound,[1],97%
same,percentage of input antibody bound,[2],98%
same,percentage of input antibody bound,[3],93%
same,binding signal in ELISA (relative light units),[4],5130 RLU
same,binding signal in ELISA (relative light units),[5],0 RLU
same,binding signal in ELISA (relative light units),[6],71 RLU
same,binding signal in ELISA (relative light units),[7],7230 RLU
same,binding signal in ELISA (relative light units),[8],0 RLU
same,binding signal in ELISA (relative light units),[9],1 RLU
same,binding signal in ELISA (relative light units),[10],0 RLU
same,binding signal in ELISA (relative light units),[11],2 RLU
same,binding signal in ELISA (relative light units),[12],534 RLU
same,binding signal in ELISA (relative light units),[13],0 RLU
same,binding signal in ELISA (relative light units),[14],0 RLU
same,percentage of input antibody bound,[15],89%
same,binding signal in ELISA (relative light units),[16],291 RLU
same,binding signal in ELISA (relative light units),[17],-1 RLU
same,binding signal in ELISA (relative light units),[18],14 RLU
same,binding signal in ELISA (relative light units),[19],3500 RLU
same,binding signal in ELISA (relative light units),[20],-1 RLU
same,binding signal in ELISA (relative light units),[21],0 RLU
same,binding signal in ELISA (relative light units),[22],-1 RLU
same,binding signal in ELISA (relative light units),[23],0 RLU
same,binding signal in ELISA (relative light units),[24],18 RLU
same,binding signal in ELISA (relative light units),[25],-1 RLU
same,binding signal in ELISA (relative light units),[26],-1 RLU
same,percentage of input antibody bound,[27],92%
same,percentage of input antibody bound,[28],96%
same,percentage of input antibody bound,[29],97%
same,percentage of input antibody bound,[30],97%
same,percentage of input antibody bound,[31],96%
same,percentage of input antibody bound,[32],94%
same,percentage of input antibody bound,[33],92%
same,percentage of input antibody bound,[34],96%
B2,binding result,GP12 peptide,no binding (tested: 0.5 ug/ml)
same,binding result,GP13 peptide,no binding (tested: 0.5 ug/ml)
same,binding result,GP10 peptide,no binding (tested: 0.5 ug/ml)
same,binding result,GP11 peptide,no binding (tested: 0.5 ug/ml)
same,binding result,GP15 peptide,no binding (tested: 0.5 ug/ml)
same,binding result,GP14 peptide,no binding (tested: 0.5 ug/ml)
same,binding result,GP16 peptide,no binding (tested: 0.5 ug/ml)
same,binding result,GP7 peptide,no binding (tested: 0.5 ug/ml)
B3,binding result,GP12 peptide,no binding (tested: 0.5 ug/ml)
same,binding result,GP13 peptide,no binding (tested: 0.5 ug/ml)
same,binding result,GP10 peptide,no binding (tested: 0.5 ug/ml)
same,binding result,GP11 peptide,no binding (tested: 0.5 ug/ml)
same,binding result,GP15 peptide,no binding (tested: 0.5 ug/ml)
same,binding result,GP14 peptide,no binding (tested: 0.5 ug/ml)
same,binding result,GP16 peptide,no binding (tested: 0.5 ug/ml)
same,binding result,GP7 peptide,no binding (tested: 0.5 ug/ml)
